Measured values reported in publication PMC6527236.

What was measured:
[1] = system: φ29 SSB Y50A (Bacillus subtilis phage φ29); test: EMSA; conditions: 60 μM SSB, 10 mM Mg2+, EMSA: 12 mM Tris-HCl pH 7.5, 10 mM MgCl2, 1 mM DTT, 4% glycerol, 0.1 mg/ml BSA, 3 nM DNA, 15 min, 4 °C, unwinding: 50 mM Tris-HCl pH 7.5, 4% glycerol
[2] = system: φ29 SSB Y57A (Bacillus subtilis phage φ29); test: EMSA; conditions: 60 μM SSB, 10 mM Mg2+, more retarded band at the highest concentration only, EMSA: 12 mM Tris-HCl pH 7.5, 10 mM MgCl2, 1 mM DTT, 4% glycerol, 0.1 mg/ml BSA, 3 nM DNA, 15 min, 4 °C, unwinding: 50 mM Tris-HCl pH 7.5, 4% glycerol
[3] = system: φ29 SSB Y50A (Bacillus subtilis phage φ29); test: unwinding (oligonucleotide displacement gel); conditions: 80 μM SSB, no Mg2+ listed, helix destabilization, indirect binding read-out, EMSA: 12 mM Tris-HCl pH 7.5, 10 mM MgCl2, 1 mM DTT, 4% glycerol, 0.1 mg/ml BSA, 3 nM DNA, 15 min, 4 °C, unwinding: 50 mM Tris-HCl pH 7.5, 4% glycerol
[4] = system: φ29 SSB Y57A (Bacillus subtilis phage φ29); test: unwinding (oligonucleotide displacement gel); conditions: 80 μM SSB, no Mg2+ listed, helix destabilization, indirect binding read-out, EMSA: 12 mM Tris-HCl pH 7.5, 10 mM MgCl2, 1 mM DTT, 4% glycerol, 0.1 mg/ml BSA, 3 nM DNA, 15 min, 4 °C, unwinding: 50 mM Tris-HCl pH 7.5, 4% glycerol

| Substance | binding signal (% of wild-type binding) [1] | binding signal (% of wild-type binding) [2] | binding signal (% of wild-type 17mer displacement) [3] | binding signal (% of wild-type 17mer displacement) [4] |
| --- | --- | --- | --- | --- |
| 216mer yshC fragment, heat denatured | 96 | 17 | – | – |
| M13mp18 ssDNA annealed to 17mer | – | – | 97 | 17 |
